Laboratory results published in paper PMC7510951 (Cancer research, 2020).

Molecular target: T1, 6xHis-EYA2 ED (human EYA2 residues 253-538) (human, UniProt O00167 253-538)
T1 sequence (looked up): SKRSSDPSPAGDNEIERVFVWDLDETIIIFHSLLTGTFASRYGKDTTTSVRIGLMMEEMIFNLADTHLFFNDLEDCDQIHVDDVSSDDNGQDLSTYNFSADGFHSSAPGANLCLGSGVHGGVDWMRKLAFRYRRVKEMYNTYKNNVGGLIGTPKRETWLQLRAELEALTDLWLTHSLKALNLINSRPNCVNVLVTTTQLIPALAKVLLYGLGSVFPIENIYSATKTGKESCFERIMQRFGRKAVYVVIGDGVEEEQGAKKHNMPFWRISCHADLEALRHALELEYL
Assay: AlphaScreen or HTRF

B1: GST-SIX1 (human SIX1 residues 1-259) (domain or fragment, UniProt Q15475 1-259, looked up)
chain: MSMLPSFGFTQEQVACVCEVLQQGGNLERLGRFLWSLPACDHLHKNESVLKAKAVVAFHRGNFRELYKILESHQFSPHNHPKLQQLWLKAHYVEAEKLRGRPLGAVGKYRVRRKFPLPRTIWDGEETSYCFKEKSRGVLREWYAHNPYPSPREKRELAEATGLTTTQVSNWFKNRRQRDRAAEAKERENTENNNSSSNKQNQLSPLEGGKPLMSSSEEEFSPPQSPDQNSVLLLQGNMGHARSSNYSLPGLTASQPSHG
- binding result: binds
